From paper PMC3347318

Target: Sudan virus Boniface (SUDV-Bon) glycoprotein GP1,2, mucin-like domain and transmembrane domain delet (Sudan virus, variant Boniface) (UniProt Q66814)
Experiment: crystal structure

Sudan virus Boniface (SUDV-Bon) glycoprotein GP1,2, mucin-like domain and transmembrane domain delet (from UniProt Q66814) (complex)
stoichiometry N: 3
